Several values for one entry are separate records, joined by “and”; a condition that tells them apart may be missing. Equal values may be shown once.
T1: human VEGFA (human, UniProt P15692)
T1 chain: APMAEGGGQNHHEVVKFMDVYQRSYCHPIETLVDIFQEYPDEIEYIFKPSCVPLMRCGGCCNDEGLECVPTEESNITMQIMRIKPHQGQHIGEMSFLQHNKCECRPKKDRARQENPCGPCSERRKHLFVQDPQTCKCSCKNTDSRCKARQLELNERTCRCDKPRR

B1: Antibody 28 PD-1 arm (antibody, V domains shown)
VH: QGQLVQSGAEVKKPGASVKVSCKASGYTFTDYEMHWVRQAPIHGLEWIGVIESETGGTAYNQKFKGRVTITADKSTSTAYMELSSLRSEDTAVYYCAREGITTVATTYYWYFDVWGQGTTVTVSS
VL: DVVMTQSPLSLPVTLGQPASISCRSSQSIVHSNGNTYLEWYLQKPGQSPQLLIYKVSNRFSGVPDRFSGSGSGTDFTLKISRVEAEDVGVYYCFQGSHVPLTFGQGTKLEIK
B2: Antibody 23 PD-1 arm (antibody, V domains shown)
VH: QGQLVQSGAEVKKPGASVKVSCKASGYTFTDYEMHWVRQAPIHGLEWIGVIESETGGTAYNQKFKGRVTITADKSTSTAYMELSSLRSEDTAVYYCAREGITTVATTYYWYFDVWGQGTTVTVSS
VL: DVVMTQSPLSLPVTLGQPASISCRSSQSIVHSNGNTYLEWYLQKPGQSPQLLIYKVSNRFSGVPDRFSGSGSGTDFTLKISRVEAEDVGVYYCFQGSHVPLTFGQGTKLEIK
B3: Antibody 24 PD-1 arm (antibody, V domains shown)
VH: QGQLVQSGAEVKKPGASVKVSCKASGYTFTDYEMHWVRQAPIHGLEWIGVIESETGGTAYNQKFKGRVTITADKSTSTAYMELSSLRSEDTAVYYCAREGITTVATTYYWYFDVWGQGTTVTVSS
VL: DVVMTQSPLSLPVTLGQPASISCRSSQSIVHSNGNTYLEWYLQKPGQSPQLLIYKVSNRFSGVPDRFSGSGSGTDFTLKISRVEAEDVGVYYCFQGSHVPLTFGQGTKLEIK
B4: DotAb4 (designed binder)
chain: EVQLVESGGGLVQPGGSLRLSCAISGFSLAATDIDWVRQAPGKGLEWVARIFSPSDFTDYADSVKGRFTISADTSKNTVYLQMNSLRAEDTAVYYCGRPDTYAYNIFLDTPTYNALHYRGQGTLVTVSS
B5: JS001 (TAB001, toripalimab) (antibody, V domains shown)
VH: QGQLVQSGAEVKKPGASVKVSCKASGYTFTDYEMHWVRQAPIHGLEWIGVIESETGGTAYNQKFKGRVTITADKSTSTAYMELSSLRSEDTAVYYCAREGITTVATTYYWYFDVWGQGTTVTVSS
VL: DVVMTQSPLSLPVTLGQPASISCRSSQSIVHSNGNTYLEWYLQKPGQSPQLLIYKVSNRFSGVPDRFSGSGSGTDFTLKISRVEAEDVGVYYCFQGSHVPLTFGQGTKLEIK
B6: Antibody 27 PD-1 arm (antibody, V domains shown)
VH: QGQLVQSGAEVKKPGASVKVSCKASGYTFTDYEMHWVRQAPIHGLEWIGVIESETGGTAYNQKFKGRVTITADKSTSTAYMELSSLRSEDTAVYYCAREGITTVATTYYWYFDVWGQGTTVTVSS
VL: DVVMTQSPLSLPVTLGQPASISCRSSQSIVHSNGNTYLEWYLQKPGQSPQLLIYKVSNRFSGVPDRFSGSGSGTDFTLKISRVEAEDVGVYYCFQGSHVPLTFGQGTKLEIK

Columns and labels:
human PD-1 [1] = target: T2, human PD-1 (human, UniProt Q15116); assay: BLI
human PD-1 [2] = target: T2, human PD-1; assay: competition ELISA, PD-L1 blocking
human PD-1 [3] = target: T2, human PD-1; assay: ELISA
human VEGFA [4] = target: T1, human VEGFA; assay: BLI
human VEGFA [5] = target: T1, human VEGFA; assay: SPR

Row | Binder | Kd (human PD-1 [1]) | IC50 (human PD-1 [2]) | EC50 (human PD-1 [3]) | Kd (human VEGFA [4]) | binding result (human VEGFA [5])
1 | B1 | 1.67 nM | 573 nM | 59.5 nM |  | 
2 | B2 | 1.73 nM | 293 nM | 6.93 nM |  | 
3 | B3 | 1.21 nM | 243 nM | 14.6 nM |  | 
4 | B4 |  |  |  | < 0.0266 nM | 
5 | B5 | 0.584 nM | 255 nM and 135 nM |  |  | no binding
6 | B6 | 0.864 nM | 297 nM | 23.8 nM |  | 

From patent US20260365731 (published 2026)
